Entries after “also recorded” stand apart in the source; their conditions may differ.
Legend:
[1] = system: skin biopsies from two patients with sGvHD; test: Sclerotic GvHD patient skin explants, fibrosis protein markers in supernatant by ELISA; type: cell-based, human; settings: 2.5 mg/ml, 10 days
Procedure: Paired skin biopsies from right arm and left abdomen of two patients with sGvHD were incubated with 2.5 mg/ml hEreg NAb1 or isotype control IgG1 antibody for 10 days. (FIG. 21A) Photos of patient fibrotic skin. (FIGS. 21B-21C) Media was changed every 48 hours and the level of fibrosis protein markers in the supernatant was quantified by ELISA (Abcam kits ab213831, ab210966, ab219046, ab187394, ab179886).
It was then investigated whether hEreg NAb1 could reduce fibrosis similar to the epiregulin neutralizing rat antibody. To investigate whether hEreg NAb1 reduces fibrosis protein markers, hEreg NAb1 was tested on skin biopsies from two patients with the fibrotic form of graft-vs-host disease (sGvHD). Patient I was a person 3 years post stem cell transplant from matched unrelated donor for treatment of myelodysplastic syndrome not on any immunosuppressive therapies. Patient 2 was a person 3 years post stem cell transplant from matched unrelated donor for treatment of acute myelogenous leukemia not on any immunosuppressive therapies. Paired 4 mm skin biopsies from the most affected skin of the right arm of patient 1 and left abdomen of patient 2 were obtained (FIG. 21A). Skin explants were incubated with 2.5 mg/ml hEreg NAb1 or isotype control IgG1 antibody for 10 days.

[2] = molecular target: T1, full-length epiregulin protein (Homo sapiens, UniProt O14944); test: HFF growth with increasing antibody in the absence of exogenous EGFR ligands; type: cell-based; settings: increasing antibody concentrations, no exogenous EGFR ligands
T1 construct: Cultured HFF expressed endogenous full-length epiregulin; endogenous in cells; host or cells: human foreskin fibroblasts (HFF, ATCC #SCRC-1041)
T1 sequence (O14944 63-169): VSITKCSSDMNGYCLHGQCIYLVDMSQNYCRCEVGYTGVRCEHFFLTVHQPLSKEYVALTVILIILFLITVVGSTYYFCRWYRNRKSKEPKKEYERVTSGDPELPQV
Procedure: HFF were incubated with increasing concentrations of hEreg NAb1 in the absence of exogenous epidermal growth factor receptor (EGFR) ligands.
To gauge their ability to inhibit epiregulin, whether the two unique antibodies produced by the hybridoma clones could inhibit recombinant epiregulin protein in vitro was tested. Characteristic of other EGFR ligands, recombinant human epiregulin (same as used for Alloy mouse immunization) induced proliferation of cultured human foreskin fibroblasts (HFF, ATCC #SCRC-1041) (FIG. 5, left panel). Maximal proliferation occurred at 100 ng/ml, so this concentration was used in subsequent inhibition experiments. The ability of hEreg NAb1 and a commercially available rat anti-human/mouse neutralizing epiregulin antibody (R&D Systems MAB1068) to inhibit epiregulin-induced HFF proliferation was then compared. […] Cultured HFF expressed endogenous full-length epiregulin, but little to no other EGFR ligands. If HFF depend on the expression of epiregulin for growth and survival, inhibition of the endogenously produced protein should reduce their growth. […] Thus, hEreg NAb1 inhibits both the recombinant and full-length human epiregulin proteins.

[3] = molecular target: T2, recombinant human epiregulin (rhEreg) (Homo sapiens, UniProt O14944); test: Inhibition of epiregulin-induced proliferation of human foreskin fibroblasts (CyQUANT); type: cell-based; settings: rhEreg 100 ng/ml
T2 construct: recombinant human epiregulin containing the epidermal growth factor (EGF) domain; purchased R&D Biosciences 1195-EP
T2 sequence (O14944 63-108 limits assumed): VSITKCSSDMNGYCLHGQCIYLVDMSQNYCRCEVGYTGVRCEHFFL
Procedure: Human foreskin fibroblasts (HFFs) were incubated with recombinant human epiregulin (rhEreg) in Dulbecco's Modified Eagle Medium (DMEM) containing 1% fetal bovine serum (FBS), n=3 per rhEreg concentration (left panel). HFF were incubated in media containing rhEreg 100 ng/ml along with commercially available rat anti-human/mouse epiregulin antibody (middle panel) or hEreg NAb1 (right panel), n=4 (middle panel), n=6 (right panel) per antibody concentration. Data points show mean and standard error, which were fit by interpolating from a sigmoidal standard curve. Proliferation was measured by green fluorescence protein (GFP) fluorescence at day 3 using CyQUANT Direct Cell Proliferation Assay (Invitrogen) on Synergy HTX plate reader (Biotek).
To gauge their ability to inhibit epiregulin, whether the two unique antibodies produced by the hybridoma clones could inhibit recombinant epiregulin protein in vitro was tested. Characteristic of other EGFR ligands, recombinant human epiregulin (same as used for Alloy mouse immunization) induced proliferation of cultured human foreskin fibroblasts (HFF, ATCC #SCRC-1041) (FIG. 5, left panel). Maximal proliferation occurred at 100 ng/ml, so this concentration was used in subsequent inhibition experiments. […]

[4] = system: other EGFR ligands; test: Rescue of HFF growth by other EGFR ligands in presence of hEreg NAb1; type: cell-based, human; settings: 5 mg/ml hEreg NAb1; recombinant EGFR ligands 0.1, 1, 10 ng/ml; 3 days
Procedure: HFF were incubated with 5 mg/ml hEreg NAb1 alone and recombinant EGFR ligands at 0.1 ng/ml. 1 ng/ml, and 10 ng/ml for 3 days prior to quantification.
Next it was considered whether hEreg NAb1 could inhibit other EGFR ligands (commercially available from R&D Systems). HFF was incubated with 5 mg/ml of hEreg NAb1 alone, which as discussed above, inhibits epiregulin-driven growth of HFF. Whether addition of the other six EGFR ligands could rescue HFF growth through their activation of EGFR was tested. Compared to the hEreg NAb1 alone control, the lowest concentration tested of each EGFR ligand, 0.1 ng/ml, was sufficient to rescue HFF growth (FIG. 8).

[5] = molecular target: T3, recombinant mouse epiregulin (rmEreg) (Mus musculus, UniProt Q61521); test: Inhibition of HFF proliferation induced by mouse epiregulin; type: cell-based; settings: rmEreg 100 ng/ml
T3 sequence (Q61521 56-101 limits assumed): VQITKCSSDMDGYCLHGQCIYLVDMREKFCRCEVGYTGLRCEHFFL
Procedure: HFF were incubated with recombinant mouse epiregulin (rmEreg) for 3 days (left panel). HFF were incubated in media containing rmEreg 100 ng/ml along with rat anti-human/mouse epiregulin antibody (middle panel) or hEreg NAb1 (right panel), n=4 (middle panel), n=6 (right panel) per antibody concentration. Data points show mean and standard error, which were fit by interpolating from a sigmoidal standard curve.
In order to validate the humanized antibody in mouse models of fibrosis, it was necessary to establish whether it cross-reacted with the mouse epiregulin homologue. To setup the assay, if recombinant mouse epiregulin could induce HFF proliferation was tested first, which it did similar to the human protein (FIG. 7, left panel). […] In contrast, hEreg NAb1 required >100-fold higher concentration to inhibit HFF proliferation by mouse epiregulin protein (FIG. 7, right panel). […] These findings are likely due to raising the humanized antibody in mice, which would negatively select out B cells that produce a self-reactive antibody.

[6] = skin explants from either patient

B1: hEreg NAb1: humanized epiregulin neutralizing antibody from hybridoma wells M3-5; VH SEQ ID NO: 1, VL SEQ ID NO: 6 (antibody, V domains shown)
VH: HLQLQESGPGLVKSSETLSLTCSVSGGSISSSGYYWGWIRQPPGKGLEWIGSFYYSGNTYYNPSLKSRVTISADTSKSQYSLKLSSVTAADTAVYYCARHPFNWNDHYHYMDVWGNGTTVTVSS
VL: DIQMTQSPSSLSASVGDSVTITCRASQSISNYLNWYQKKPGKAPKVLIYAASSLQSGVPSRFSGSGSGTDFTLTISSLQPEDFATYYCQQSYITSITFGQGTRLEIK
fibrosis markers in sclerotic GvHD skin explants ([1]; vs isotype control IgG1): reduces fibrosis markers | MCP-1 in supernatant vs IgG1 isotype control ([1]; patient 1, right arm): significantly reduced expression | TIMP1 in supernatant vs IgG1 isotype control ([1]; patient 1, right arm): significantly reduced expression | TNC in supernatant vs IgG1 isotype control ([1]; patient 1, right arm): significantly reduced expression | TNC in supernatant vs IgG1 isotype control ([1]; patient 2, left abdomen): significant reduction | fibronectin (FN) expression [1, 6]: did not reduce expression | pro-collagen I alpha 1/pro-collagen I N-terminal propeptide (PINP) expression [1, 6]: did not reduce expression | HFF growth / inhibition of endogenous full-length epiregulin [2]: decreased growth was observed; also recorded: inhibits full-length epiregulin protein | inhibition of human epiregulin-induced HFF proliferation ([3]; 3 days): inhibited HFF proliferation in a concentration-dependent manner; also recorded: inhibits | IC50, inhibition of epiregulin-induced HFF proliferation ([3]; day 3): 0.1 to 0.3 µg/mL | cross-reactivity with / neutralization of other EGFR ligands [4]: does not cross-react; also recorded: does not neutralize | cross-reactivity for mouse epiregulin protein ([5]; HFF proliferation): little cross-reactivity; also recorded: low cross-reactivity | fold higher concentration required to inhibit HFF proliferation by mouse epiregulin protein ([5]; HFF): > 100 fold
